# According to US20220016257A1 (Daiichi Sankyo, published 2022):
# T1: human CDH6 (full-length, on cells) (human, UniProt P55285 54-790)
# T1 construct: also called hCDH6; full-length hCDH6
# T1 sequence: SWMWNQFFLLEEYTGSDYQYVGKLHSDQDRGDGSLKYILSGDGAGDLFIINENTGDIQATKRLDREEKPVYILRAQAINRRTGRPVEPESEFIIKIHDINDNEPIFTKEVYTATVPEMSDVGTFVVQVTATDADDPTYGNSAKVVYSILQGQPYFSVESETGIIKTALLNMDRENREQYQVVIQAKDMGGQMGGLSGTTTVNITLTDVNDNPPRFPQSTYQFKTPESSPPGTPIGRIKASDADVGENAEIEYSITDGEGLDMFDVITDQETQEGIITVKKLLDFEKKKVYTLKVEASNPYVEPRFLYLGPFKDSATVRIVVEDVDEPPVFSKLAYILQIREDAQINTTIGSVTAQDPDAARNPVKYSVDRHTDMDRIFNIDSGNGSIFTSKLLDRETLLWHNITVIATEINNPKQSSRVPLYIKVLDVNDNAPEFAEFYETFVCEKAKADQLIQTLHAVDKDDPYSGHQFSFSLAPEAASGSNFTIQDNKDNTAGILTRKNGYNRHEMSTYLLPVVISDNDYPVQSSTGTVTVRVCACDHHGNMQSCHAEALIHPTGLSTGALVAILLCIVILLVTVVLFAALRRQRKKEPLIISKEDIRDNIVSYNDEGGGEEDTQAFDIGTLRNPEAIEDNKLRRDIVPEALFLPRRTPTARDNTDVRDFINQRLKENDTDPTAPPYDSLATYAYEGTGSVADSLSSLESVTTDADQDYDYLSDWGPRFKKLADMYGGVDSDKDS
# T2: cynomolgus monkey CDH6 (full-length, on cells) (cynomolgus monkey, UniProt P55285 54-790 (human entry))
# T2 construct: Expressed from pcDNA3.1-cynoCDH6 on transfected cells; also called cynoCDH6
# T2 sequence: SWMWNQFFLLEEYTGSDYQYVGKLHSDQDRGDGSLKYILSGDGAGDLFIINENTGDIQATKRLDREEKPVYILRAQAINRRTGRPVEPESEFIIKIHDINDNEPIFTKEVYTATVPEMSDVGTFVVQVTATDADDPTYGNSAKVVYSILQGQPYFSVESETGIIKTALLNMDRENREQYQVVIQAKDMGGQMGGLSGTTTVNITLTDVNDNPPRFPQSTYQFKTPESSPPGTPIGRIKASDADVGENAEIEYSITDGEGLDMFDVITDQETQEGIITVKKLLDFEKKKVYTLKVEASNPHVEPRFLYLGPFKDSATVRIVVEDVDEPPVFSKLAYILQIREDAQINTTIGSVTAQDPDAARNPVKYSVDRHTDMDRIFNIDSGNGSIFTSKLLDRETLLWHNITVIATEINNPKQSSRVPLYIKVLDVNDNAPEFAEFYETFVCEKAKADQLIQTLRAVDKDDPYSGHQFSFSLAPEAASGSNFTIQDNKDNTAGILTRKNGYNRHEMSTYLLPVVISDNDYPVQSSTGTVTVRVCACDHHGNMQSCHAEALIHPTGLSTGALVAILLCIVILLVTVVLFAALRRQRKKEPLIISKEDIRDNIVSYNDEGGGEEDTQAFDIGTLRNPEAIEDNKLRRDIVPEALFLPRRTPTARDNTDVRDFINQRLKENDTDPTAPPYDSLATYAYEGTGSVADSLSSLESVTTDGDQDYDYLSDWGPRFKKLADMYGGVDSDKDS
# T3: Recombinant Human Cadherin-6 (KCAD)/Fc Chimera (RD-SYSTEMS) (human, UniProt P55285 54-615, limits assumed)
# T3 construct: Captured by an anti-histidine antibody; also called human CDH6; the antigen; not shown: Fc portion (and the histidine tag implied by anti-histidine capture) of the bought chimera
# T3 sequence: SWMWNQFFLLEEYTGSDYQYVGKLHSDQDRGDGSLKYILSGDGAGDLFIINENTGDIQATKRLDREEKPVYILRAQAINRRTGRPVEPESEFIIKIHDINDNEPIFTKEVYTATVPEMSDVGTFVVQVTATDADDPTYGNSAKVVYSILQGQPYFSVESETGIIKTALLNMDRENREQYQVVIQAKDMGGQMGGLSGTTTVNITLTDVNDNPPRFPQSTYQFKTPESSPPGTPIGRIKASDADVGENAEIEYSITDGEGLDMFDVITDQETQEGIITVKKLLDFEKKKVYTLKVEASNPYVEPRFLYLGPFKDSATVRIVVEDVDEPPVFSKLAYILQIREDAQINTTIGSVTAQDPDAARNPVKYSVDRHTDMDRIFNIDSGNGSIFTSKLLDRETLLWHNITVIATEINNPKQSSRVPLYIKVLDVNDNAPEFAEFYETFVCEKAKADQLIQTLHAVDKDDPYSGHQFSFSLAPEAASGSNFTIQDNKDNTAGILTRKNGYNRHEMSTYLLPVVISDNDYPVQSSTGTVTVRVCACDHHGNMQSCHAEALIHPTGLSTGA
# How the values were obtained:
# [1] = molecular target: T1, human CDH6 (full-length, on cells); test: flow cytometry, 293α cells transiently transfected with pcDNA3.1-hCDH6, PE anti-human IgG Fcγ F(ab')2, mean fluorescence intensity
# Procedure: (§1) The CDH6-binding activity of the human chimeric anti-CDH6 antibody chG019 purified in 4)-2 was confirmed by flow cytometry. […] The cells were cultured overnight under conditions of 37° C. and 5% CO₂, treated with TrypLE Express (Thermo Fisher Scientific Inc.), and thereafter, a cell suspension was prepared. chG019 was added to the suspension of each of these cells. The cells were left standing at 4° C. for 1 hour. Thereafter, the cells were washed twice with PBS supplemented with 5% FBS, and then suspended by the addition of PE-labeled F(ab′)2 Fragment anti-human IgG, Fcγ antibody (Jackson ImmunoResearch Laboratories, Inc.) that had been 500-fold diluted with PBS supplemented with 5% FBS. The cells were left standing at 4° C. for 1 hour. The cells were washed twice with PBS supplemented with 5% FBS, and then re-suspended in PBS supplemented with 5% FBS, followed by detection using a flow cytometer (Canto II; BD Biosciences). The data was analyzed using FlowJo (TreeStar, Inc.). […] In FIG. 4, the abscissa depicts antibody concentration, and the ordinate depicts the amount of the antibody bound, based on mean fluorescence intensity.
# [2] = molecular target: T2, cynomolgus monkey CDH6 (full-length, on …); test: flow cytometry, 293α cells transiently transfected with pcDNA3.1-cynoCDH6, PE anti-human IgG Fcγ F(ab')2, mean fluorescence intensity
# Procedure: as §1
# [3] = molecular target: T3, Recombinant Human Cadherin-6 (KCAD)/Fc …; test: SPR (Biacore T200), antigen captured by immobilized anti-histidine antibody, antibody as analyte, steady state affinity model
# Procedure: The dissociation constant of a construct of each of H01L02A, H11L02A and H31L02A prepared in Example 7)-4 and human CDH6 was measured by using Biacore T200 (GE Healthcare Biosciences Corp.), according to a capture method, which comprises capturing the antigen as a ligand with Anti-histidine antibody immobilized by means of a His Capture Kit (manufactured by GE Healthcare Bioscience) and then measuring the dissociation constant using an antibody as an analyte. As the sensor chip, CM5 (manufactured by GE Healthcare Bioscience) was used. As the running buffer, buffer containing 20 mM Tris-HCl, 150 mM NaCl, 1 mM CaCl₂ and 0.05% Surfactant P20 (pH7.4), was used. On the chip, a 1 μg/mL Recombinant Human Cadherin-6 (KCAD)/Fc Chimera (RD-SYSTEMS) was added at a rate of 10 μL/minute for 60 seconds, and a dilution series solution (0.11 to 81 μg/mL) of the antibody prepared in Example 7)-4 was then added at a flow rate of 30 μl/min for 180 seconds. Subsequently, the dissociation phase was monitored for 180 seconds. As a regeneration solution, a Glycine 1.5 (GE Healthcare Bioscience made by the company) was added at a flow rate of 20 μl/min for 30 seconds. A Steady State Affinity model was used in data analysis, and the dissociation constant (KD) was calculated.
Binder,EC50 (read off the curve) [1],EC50 (read off the curve) [2],Kd [3]
"human chimeric anti-CDH6 antibody chG019 (antibody, human IgG1, Human IgG1/kappa constant regions; also called chimeric G019 antibody; chG019 antibody) heavy: not shown light: DIQMTQSPSLLSASVGDRVTLNCKASQNIYKNLAWYQQKLGEGPKLLIYDANTLQTGIPSRFSGSGSGSDFTLTISSLQPEDVATYFCQQYYSGWAFGGVTNLELKRAVAAPSVFIFPPSDEQLKSGTASVVCLLNNFYPREAKVQWKVDNALQSGNSQESVTEQDSKDSTYSLSSTLTLSKADYEKHKVYACEVTHQGLSSPVTKSFNRGEC",~0.01 µg/mL,~0.01 µg/mL,
"humanized anti-CDH6 antibody H01L02A (antibody, human IgG1, kappa, L234A L235A, hH01A heavy chain (hH01 with L234A/L235A, EU index; IgG1 LALA) and hL02 light chain; also called H01L02A antibody) heavy: not shown light: DIQMTQSPSSLSASVGDRVTITCKASQNIYKNLAWYQQKPGKAPKLLIYDANTLQTGVPSRFSGSGSGSDFTLTISSLQPEDFATYFCQQYYSGWAFGQGTKVEIKRTVAAPSVFIFPPSDEQLKSGTASVVCLLNNFYPREAKVQWKVDNALQSGNSQESVTEQDSKDSTYSLSSTLTLSKADYEKHKVYACEVTHQGLSSPVTKSFNRGEC",,,2.8 nM
"humanized anti-CDH6 antibody H31L02A (antibody, human IgG1, kappa, L234A L235A, V domains shown, hH31A heavy chain (hH01 with the 81st glutamine changed to serine and the 123rd phenylalanine to alanine, IgG1 LALA) and hL02 light chain; also called H31L02A antibody) VH: EVQLVQSGAEVKKPGASVKVSCKASGYTFTRNFMHWVRQAPGQGLEWMGWIYPGDGETEYASKFQGRVTITADTSTSTAYMELSSLRSEDTAVYYCARGVYGGAAGGYFDFWGQGTLVTVSS VL: DIQMTQSPSSLSASVGDRVTITCKASQNIYKNLAWYQQKPGKAPKLLIYDANTLQTGVPSRFSGSGSGSDFTLTISSLQPEDFATYFCQQYYSGWAFGQGTKVEIKR",,,11.1 nM
"humanized anti-CDH6 antibody H11L02A (antibody, human IgG1, kappa, L234A L235A, V domains shown, hH11A heavy chain (hH01 with the 71st tyrosine changed to alanine, IgG1 LALA) and hL02 light chain; also called H11L02A antibody) VH: EVQLVQSGAEVKKPGASVKVSCKASGYTFTRNFMHWVRQAPGQGLEWMGWIAPGDGETEYAQKFQGRVTITADTSTSTAYMELSSLRSEDTAVYYCARGVYGGFAGGYFDFWGQGTLVTVSS VL: DIQMTQSPSSLSASVGDRVTITCKASQNIYKNLAWYQQKPGKAPKLLIYDANTLQTGVPSRFSGSGSGSDFTLTISSLQPEDFATYFCQQYYSGWAFGQGTKVEIKR",,,43.1 nM
